In US20070264678A1:

Key:
[1] = target: PTK labeled tracer F-ADE(pY)LIPQQS; test: binding curves as in Example 2 (FP), antibody at several labeling ratios
[2] = target: PTK labeled tracer F-ADE(pY)LIPQQS; test: fluorescence polarization, direct binding curve: labeled antibody 10 nM to 9.8 pM against 1 nM tracer

In the case of “Anti p-Tyr antibody (anti-pY20) labeled with CS124-DTPA-Phe-NCS*Tb”, the fold variation of affinity for the tracer upon labeling [1] is reported as < 2 fold.
In the case of “Tb-chelate labeled PY72 (anti-phosphotyrosine) IgG antibody”, the EC50 [2] is reported as 1 nM.
